{
  "source": "patent US20250376500A1",
  "data": [
    {"target": "IGF-1 receptor (IGF1R) on DU145 cells and on immortalized human meibomian gland epithelial cells (human) (UniProt P08069)", "sequence (P08069 31-1367)": "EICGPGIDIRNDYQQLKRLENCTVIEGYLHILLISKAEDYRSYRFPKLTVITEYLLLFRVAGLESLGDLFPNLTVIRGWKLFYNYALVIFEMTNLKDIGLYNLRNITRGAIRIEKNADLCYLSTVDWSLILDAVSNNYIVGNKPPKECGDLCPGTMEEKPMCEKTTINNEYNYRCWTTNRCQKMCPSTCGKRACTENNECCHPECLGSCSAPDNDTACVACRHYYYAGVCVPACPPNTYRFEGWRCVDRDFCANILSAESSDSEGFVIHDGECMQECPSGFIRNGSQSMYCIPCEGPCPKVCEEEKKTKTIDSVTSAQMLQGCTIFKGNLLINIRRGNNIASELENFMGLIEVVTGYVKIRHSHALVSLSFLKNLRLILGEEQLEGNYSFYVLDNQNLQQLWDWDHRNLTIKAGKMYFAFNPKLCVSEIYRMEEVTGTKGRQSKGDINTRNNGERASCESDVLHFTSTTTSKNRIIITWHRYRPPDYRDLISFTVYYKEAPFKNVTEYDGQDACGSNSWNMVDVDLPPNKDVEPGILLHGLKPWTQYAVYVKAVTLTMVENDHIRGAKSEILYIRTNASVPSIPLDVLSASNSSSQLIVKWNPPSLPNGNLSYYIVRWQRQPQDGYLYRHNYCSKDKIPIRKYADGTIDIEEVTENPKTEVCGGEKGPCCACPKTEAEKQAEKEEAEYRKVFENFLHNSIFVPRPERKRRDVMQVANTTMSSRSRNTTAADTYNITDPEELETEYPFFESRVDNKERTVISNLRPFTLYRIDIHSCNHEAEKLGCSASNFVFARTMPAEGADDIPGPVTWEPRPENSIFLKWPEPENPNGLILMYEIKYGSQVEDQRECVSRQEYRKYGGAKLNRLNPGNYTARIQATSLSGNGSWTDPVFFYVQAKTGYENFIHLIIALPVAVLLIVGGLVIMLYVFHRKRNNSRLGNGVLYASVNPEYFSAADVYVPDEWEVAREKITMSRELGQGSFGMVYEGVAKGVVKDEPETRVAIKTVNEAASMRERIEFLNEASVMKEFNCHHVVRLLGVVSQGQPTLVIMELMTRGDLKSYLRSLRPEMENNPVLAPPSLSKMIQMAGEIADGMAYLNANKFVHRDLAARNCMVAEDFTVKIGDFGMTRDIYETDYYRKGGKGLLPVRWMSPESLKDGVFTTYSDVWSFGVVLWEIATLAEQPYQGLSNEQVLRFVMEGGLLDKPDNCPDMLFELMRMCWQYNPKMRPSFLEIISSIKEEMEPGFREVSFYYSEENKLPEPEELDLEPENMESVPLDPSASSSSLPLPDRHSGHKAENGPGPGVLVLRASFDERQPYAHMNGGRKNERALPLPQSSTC", "experiment": "cell-based or functional assay", "units": {"EC50 of AKT S473 phosphorylation in DU145 cells": "nM"}, "values": [
      {"substance": "IGF-1 E3R (SEQ ID NO: 4) (from UniProt P05019 49-118) (ligand)", "EC50 of AKT S473 phosphorylation in DU145 cells": 4.5},
      {"substance": "IGF-1 Ea (SEQ ID NO: 7) (from UniProt P17647 26-130) (ligand)", "EC50 of AKT S473 phosphorylation in DU145 cells": 8.7},
      {"substance": "IGF-1 Des1-3 (SEQ ID NO: 8) (ligand)", "EC50 of AKT S473 phosphorylation in DU145 cells": 2.3}
    ]}
  ]
}
